{
  "source": "paper PMC9865274",
  "about": "“Ultrasensitive Detection of Interleukin 6 by Using Silicon Nanowire Field-Effect Transistors”",
  "binders": {"B1": {"name": "anti-IL-6 aptamer (31 nt) (ssDNA)", "DNA": "GGTGGCAGGAGGACTATTTATTTGCTTTTCT", "modifications": "5'-NH2-C6, covalently immobilized via glutaraldehyde on mixed-SAM SiNW-FET"}},
  "target": "Interleukin 6 (IL-6) (Homo sapiens, UniProt P05231 30-212)",
  "sequence (P05231 30-212)": "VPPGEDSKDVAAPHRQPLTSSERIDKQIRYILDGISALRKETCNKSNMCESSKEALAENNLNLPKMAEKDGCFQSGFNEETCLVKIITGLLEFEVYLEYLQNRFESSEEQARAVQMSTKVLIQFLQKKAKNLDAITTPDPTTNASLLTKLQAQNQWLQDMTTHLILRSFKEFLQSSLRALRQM",
  "assay": "SiNW-FET (gate voltage shift); aptamer immobilized on mSAMs-GA; IL-6 in PBS pH 7.4, 30 min; valid signal from 100 fM (2.1 pg/mL), approx. linear to 10 nM; no Kd; IL-6 in PBS pH 7.4, 30 min incubation, PBS wash; readout in 10 mM bis-tris propane pH 7.4; temperature of binding not stated",
  "conditions": "protein: commercial",
  "data": [
    {"binder": "B1", "values": [
      {"measurement": "binding result", "value": "binds"}
    ]}
  ]
}
